This is an account of results in patent US20050025760A1 (KEIO UNIVERSITY, published 2005).

The target in experiment [1] is T1, recombinant protein human Dsg1-His (human, UniProt Q02413 50-548).
T1 construct: extracellular domain; Baculovirus product; not shown: C-terminal His tag
T1 sequence (looked up): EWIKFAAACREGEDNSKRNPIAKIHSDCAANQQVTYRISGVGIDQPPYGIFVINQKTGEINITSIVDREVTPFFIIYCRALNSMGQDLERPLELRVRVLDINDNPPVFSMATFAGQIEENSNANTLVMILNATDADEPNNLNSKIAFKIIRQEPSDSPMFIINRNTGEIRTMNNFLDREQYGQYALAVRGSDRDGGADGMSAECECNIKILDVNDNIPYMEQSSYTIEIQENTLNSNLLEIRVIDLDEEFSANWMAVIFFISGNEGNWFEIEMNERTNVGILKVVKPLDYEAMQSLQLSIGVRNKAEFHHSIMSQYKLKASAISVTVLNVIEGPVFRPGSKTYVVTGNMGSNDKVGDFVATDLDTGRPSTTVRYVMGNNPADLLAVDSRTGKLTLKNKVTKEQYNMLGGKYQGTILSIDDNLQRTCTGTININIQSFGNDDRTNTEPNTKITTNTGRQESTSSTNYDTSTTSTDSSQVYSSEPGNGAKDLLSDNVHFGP
The experiment is described as follows: ELISA on recombinant human Dsg1-His. The text has this: (§1) The baculovirus vectors, pEVmod-Dsg3-His and pEVmod-Dsg1-His, pEVmod-mouse Dsg3-His and pEVmod-mouse Dsg1 -His, that were constructed according to the method as described previously (J. Immunol. 159, 2010-2017, 1997) were used. These recombinant baculoviruses were infected to insect cells, High Five (Invitrogen Corporation), then the recombinant protein human Dsg3-His and Dsg1-His, recombinant protein mouse Dsg3-His and Dsg1-His were collected from the culture media, respectively. In addition, purification of these recombinant proteins was conducted using Ni-NTA column. These purified recombinant proteins were coated on ELISA (Enzyme Linked Immunosorbent Assay) plates, respectively, 50 μl each of the culture supernatant of the anti-Dsg3 monoclonal antibody-producing hybridoma was added to each well, and ELISA was practiced according to the method as previously described (J Clin Invest 105, 625-631, 2000). PV mouse model 1 serum with moderate degree of antibody titer was selected as a positive control, and 1 serum of normal mouse serum was selected as a negative control. Absorbance was determined at wavelength 450 nm (Bio-rad, Hercules, Calif. USA), and the index was shown by the following formula. Index={OD(specimen)−OD(negative control)}/{OD(positive control)−OD(negative control)}×100 A-2 (Living Cell Staining using Culture Mouse Keratinocyte PAM 212)
(In general: ELISA stands for enzyme-linked immunosorbent assay.)

Experiment [2] deals with T2, recombinant protein human Dsg3-His (human, UniProt P32926 50-615).
T2 construct: extracellular domain; Baculovirus product; also called recombinant human Dsg3; not shown: C-terminal His tag
T2 sequence (looked up): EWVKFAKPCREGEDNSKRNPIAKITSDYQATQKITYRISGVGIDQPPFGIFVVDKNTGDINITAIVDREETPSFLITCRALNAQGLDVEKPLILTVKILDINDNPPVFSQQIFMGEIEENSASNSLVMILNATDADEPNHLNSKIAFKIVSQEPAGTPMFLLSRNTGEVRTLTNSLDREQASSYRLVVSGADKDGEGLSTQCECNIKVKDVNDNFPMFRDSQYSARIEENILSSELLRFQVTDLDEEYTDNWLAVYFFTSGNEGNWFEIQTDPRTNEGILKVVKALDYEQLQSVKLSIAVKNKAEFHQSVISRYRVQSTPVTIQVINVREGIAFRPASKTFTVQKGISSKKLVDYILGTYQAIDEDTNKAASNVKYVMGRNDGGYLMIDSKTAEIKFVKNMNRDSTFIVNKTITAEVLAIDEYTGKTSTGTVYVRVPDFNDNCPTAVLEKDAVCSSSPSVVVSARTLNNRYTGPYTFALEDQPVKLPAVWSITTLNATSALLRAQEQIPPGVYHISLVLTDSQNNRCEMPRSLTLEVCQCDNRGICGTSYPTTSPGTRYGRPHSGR
The experiment is described as follows: ELISA on recombinant human Dsg3-His.
From the text: as §1

B1: anti-Dsg3 monoclonal antibody AK23 (antibody, mouse IgG1, V domains shown)
VH: QVQLQQSGTELVKPGASVKLSCKSSGYTFTSYWINWVKQRPGQGLEWIGNINPSNGGINYNEKFKSKATLTVDKSSSTAYMQLKSLTSEDSAVYYCARGGYDGYPWGQGTTVTVS
VL: DIQMTQSPKFLLVSAGDRVTITCKASQSVSYDVAWYQQKPGQSPKLLISYASNRYTGVPDRFTGSGYGSDFTFTISTVQTEDLAVYFCQQDYSSPWTFGGGTKLELKR
notes: Mouse IgG1 kappa hybridoma antibody
As for B1, the results for the binding result in experiment [1] and in experiment [2] were “no binding” and “binds”, respectively.
